# Source: US20060253917A1 (published 2006)
# Ends that are not written are not given here.
# T1: OsCYCOS2 aa 50-233 (Oryza sativa, UniProt A2YH60 50-233)
# T1 construct: bait, Gal4 DBD fusion; also called PN20257; O. sativa Cyclin OsCYCOS2
# T1 chain: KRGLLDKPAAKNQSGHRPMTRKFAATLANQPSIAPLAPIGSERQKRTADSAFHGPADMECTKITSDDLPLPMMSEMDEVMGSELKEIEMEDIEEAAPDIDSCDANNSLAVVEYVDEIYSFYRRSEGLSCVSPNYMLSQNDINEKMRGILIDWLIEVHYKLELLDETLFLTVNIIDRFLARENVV
# T2: OsS49462 aa 1-100 (Oryza sativa, UniProt Q01J96 179-278)
# T2 construct: bait, Gal4 DBD fusion; also called PN20325; O. sativa Cyclin OsS49462, Fragment
# T2 sequence: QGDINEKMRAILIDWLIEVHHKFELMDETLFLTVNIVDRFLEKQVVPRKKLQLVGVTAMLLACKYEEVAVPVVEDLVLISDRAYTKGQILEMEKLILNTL
# Biological target: T3, OsE2F1 aa 100-250 (Oryza sativa)
# T3 construct: bait, Gal4 DBD fusion; also called PN19758; O. sativa E2F Homolog
# T3 sequence (chain, as listed by the source): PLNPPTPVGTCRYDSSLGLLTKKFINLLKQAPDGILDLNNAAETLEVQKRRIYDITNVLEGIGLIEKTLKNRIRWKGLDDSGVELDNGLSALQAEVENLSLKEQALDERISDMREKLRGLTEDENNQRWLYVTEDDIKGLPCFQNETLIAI
# Assay: Y2H; output trait library
# Outline: (§1)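 A rice prey library, either the input trait or the output trait library, was screened with a bait clone encoding a defined amino-acid fragment of a rice protein. Screening used an automated, high-throughput yeast two-hybrid assay provided by Myriad Genetics Inc. (Salt Lake City, Utah). Retrieved prey clones had their encoding sequences compared by BLAST against databases so the interacting proteins could be identified.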
row,Binder,binding result
1,"OsPN26539 aa 82-253 (other, prey, AD fusion) GPGTRATGPDKGGRGLRQFSMKVCEKVESKGRTTYNEVADELVAEFADPNNNFASPDPDNPNTPQFDEKNIRRRVYDALNVLMAMDIISKDKKEIQWKGLPRTSMSDVEELKTEIIGLKGRIDKKNAYLQELEDQFVGLQNLAQRNEQLYGSGNAPSGGVALPFILVQTRPH",binds
2,"Os018989-4003 aa 177-294 (other, prey, AD fusion; also called PN21044) NYRYEKIQKLEEVHKELITRIKNKKKLLQEIEKQFDDLQNITLRNQASQRPAESVNGILLPFLLIKTSRKARVEIEISEDSKFARFDFNGAPFTMHDDVSILEAIRRNKGRAGLSIHP",binds
3,"Os018989-4003 aa 9-179 (other, prey, AD fusion; also called PN21044; Hypothetical Protein 018989-4003, Similar to Triticum sp; DP Protein) AAAASAAPGLANLLIREGAGLPSRPERYPPFRPCTSDSFAPISREGDDIPPQKKSVSLRSGGGGNAAEREEGGANRNGKKEKTGAQRITGWGLREFSKIVSKKVEAKGRTTYNEVADEIFAELKSITQNGLEFDEKNIRRRVYDAFNVLIAIRVIAKDKKEIKWMGLTNYR",binds
4,"OsPN26539 aa 66-346 (other, prey, AD fusion; also called Novel Protein PN26539, Probable DP) DDAPSSQPATSKKKKRGPGTRATGPDKGGRGLRQFSMKVCEKVESKGRTTYNEVADELVAEFADPNNNFASPDPDNPNTPQFDEKNIRRRVYDALNVLMAMDIISKDKKEIQWKGLPRTSMSDVEELKTEIIGLKGRIDKKNAYLQELEDQFVGLQNLAQRNEQLYGSGNAPSGGVALPFILVQTRPHATVEVEISEDMQLVHFDFNSTPFELHDDSFVLKALGFSGKEPDDTQAWVGNGGECSTTPIYHQSPQVARPNGVRLPTSPPIPGILKGRVKHEH",binds
5,"OsPN26539 aa 194-346 (other, prey, AD fusion) TEIIGLKGRIDKKNAYLQELEDQFVGLQNLAQRNEQLYGSGNAPSGGVALPFILVQTRPHATVEVEISEDMQLVHFDFNSTPFELHDDSFVLKALGFSGKEPDDTQAWVGNGGECSTTPIYHQSPQVARPNGVRLPTSPPIPGILKGRVKHEH",binds
6,"RFEATTKSKLASLNEKLDILERKLEVLEVQVSSATTNPSVFN (other, not fully specified, prey, AD fusion; also called Novel Protein PN30852) [OsPN30852 aa 45-86]",binds

# Biological target: T1, OsCYCOS2 aa 50-233
# Assay: Y2H; output trait library
# Outline: as §1
row,Binder,binding result
1,"OsPN29967 aa 16-174 (other, prey, AD fusion; also called Novel Protein PN29967, Fragment, unknown) PPTRRALTLTLTLTLLLSLAMSEPASPPPAMPEDAAPPQPQPEPAVPAGEEAAPSLERKEELLPVEEKISELDESQSQLMGRLRGLKEDLLNWRSSLDTQVTKYKSELSDIKTALNSEIEQLRSDFQELRTTLKKQQEDVSNSLKNLGLQDATDNDGNK",binds
2,"OsPN29968 aa 12-113 (other, prey, AD fusion; also called Novel Protein PN29968, Similar to A. thaliana Unknown Protein BAB01990) LVNNEDVVAIKQMQHLILGRLQDSNAVLTHFNEYSEQCFAEVSNDFAGKTRLLKSMKADLDHIFLKLRGMKSRLAATYPDAFPTGAMAETMDQRPDLESPLD",binds

# Biological target: T2, OsS49462 aa 1-100
# Assay: Y2H; output trait library
# Outline: as §1
row,Binder,binding result
1,"PN25358 aa 303-472 (other, prey, AD fusion; also called Hypothetical Protein AAK39589) VSASEFYSQSAIYVAAAHALKPNYSVYRSALRLVRSMLPLPYLKVGYLIAPPENSAIAPHKEWERSQFVLNHEELQQVNASDQPPSQSPGHVDSGRKLFRIVVADIVSVSACADLTLPPGAGLRIDTIHGPRFLVADNWETIDSWLDAIRLVYTIFARGRSDVLAGIITG",binds
2,"OsPN29942 aa 11-182 (other, prey, AD fusion; also called Novel Protein PN29942, Fragment, zinc finger protein) VDTSNEIKEIVIDDMEPKVFQAGFLFMYRDNLVGDDELSASSSDCSIFDTLAGKLLAAADRYELPRLRLLCESYLCKHISVNSVATTLALADRHHAMELKSVCLKFAAENLSAVIRTDGFDYLKDNCPALQSEILRTVAGCEEECSSGGKSQSVWGQLSDGGDTSGRRVRPR",binds
3,"OsPN29957 aa 51-288 (other, prey, AD fusion; also called Novel Protein PN29957, Fragment, unknown) PRVLALTVKQSTKGEAAKAFLRVLKYSSGAVLEPAKLYKLKHLTKVEVISNDPSGCTFVLGFDNLRSQSVAPPQWTMRNIDDRNRLLFSILTMCKEILSYLPKVVGIDFVELALWAKENTVTLDNQSSTQDGQEKSVTTQTERKVTVTVENDLGSQAKDEEEDMEALLDTYVMGIGEADAFSERLKQELVALEAANVYQLLQSEPLIDEVLQGLDAASATVDDMDEWLRIFNMKLRHM",binds
4,"OsPN23484 aa 111-194 (other, prey, AD fusion; also called Novel Protein PN23484, heavy meromyosin) GREDREREVQEELASLSDLAASYHSRLQSHGIDPDSFSDDGEEEQHDEEDGEEVEQIDTAALQTDGSSGGDSIGGMQVKAMVDD",binds
5,"OsPN29957 aa 28-214 (other, prey, AD fusion) EVSFSIRVAKGRGIFEKLGRLAKPRVLALTVKQSTKGEAAKAFLRVLKYSSGAVLEPAKLYKLKHLTKVEVISNDPSGCTFVLGFDNLRSQSVAPPQWTMRNIDDRNRLLFSILTMCKEILSYLPKVVGIDFVELALWAKENTVTLDNQSSTQDGQEKSVTTQTERKVTVTVENDLGSQAKDEEEDM",binds

# Biological target: T4, OsPP2A-2 aa 1-308 (Oryza sativa, UniProt A2XN40 1-307)
# T4 construct: bait, Gal4 DBD fusion; also called PN20254; O. sativa Serine/Threonine Protein Phosphatase PP2A-2, Catalytic Subunit
# T4 sequence (A2XN40 whole entry, the tested form may be a part): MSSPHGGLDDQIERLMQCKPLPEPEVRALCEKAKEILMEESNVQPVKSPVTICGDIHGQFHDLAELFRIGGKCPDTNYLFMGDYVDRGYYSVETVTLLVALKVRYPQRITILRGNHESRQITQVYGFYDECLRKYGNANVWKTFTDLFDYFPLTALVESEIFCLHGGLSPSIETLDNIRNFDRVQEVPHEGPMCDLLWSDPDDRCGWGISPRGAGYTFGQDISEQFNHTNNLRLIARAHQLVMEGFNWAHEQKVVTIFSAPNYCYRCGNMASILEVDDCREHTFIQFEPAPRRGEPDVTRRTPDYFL
# Assay: Y2H; input trait library
# Outline: as §1
row,Binder,binding result
1,"OsORF020300-2233.2 aa 118-388 (other, prey, AD fusion; also called PN21639) SQDHLKEFISICEALELISEDELELSRQKQPDTMANRRAQKAARFKRQKAAETKLLEIKERKERRRRSLRAAALSAPIEAGEEDAFEDDGEEEREAWLATISLALCKAFDLLDMLKKEEEMLLAVKERQAKDGNAFAREMLDERTKKAEAWHHNAANRAPYSKPADPITCATFAQDVIEGRASVSQAHEHKHQPLIFGPASLVGGGLTSERERMAAQVFQPSYRLPTMSIEEAGLREMKMMEKWQERTAKMIQESNSAWHKDGSRSAQEDE",binds
2,"OsPN23268 aa 12-200 (other, prey, AD fusion; also called Novel Protein 23268, Similar to Phosphoribosylanthranilate Transferase, Chloroplast Precursor, Fragment) SEEEAEATLRLLLEEENEARIAAFLVLLRAKGETYEEIVGLAKAMIGCCVRVDGLDDAVDIVGTGGDGADTVNISTGSTILAAAAGAKVAKQGSRASSSACGSADGIKRCVNEVGVGFMMSANYHPAMKIVKPVRKKLKIKTVFNILGPLLNPARVPYAVIGVYHENIVTKMAKAAQKFGMKRALVVHS",binds
3,"OsAAK63900 aa 122-224 (other, prey, AD fusion; also called PN23266; O. sativa Putative Proline-Rich Protein AAK63900) AAVAGKTHYRSALCASVTICGPIKKKIIDHFHKKPVPPKPEPKPEPPKPKPEPEHPFLDHIHKKEKHFFDHFHKKPVPPKPEPKPEPKPQPAPEYHNPSPPAN",binds
4,"OsPN26645 aa 24-164 (other, prey, AD fusion; also called Novel Protein PN26645, Putative Protein Disulfide Isomerase-Related Protein Precursor) PLPEACPVPTAAEEILGPGGTCTTLDRRGDPVGVIEGDEVTLAKAITLLHMNKDDYIAVLFYASWCPFSQECKPNFEILASLFPSIRHFAFEESSIRPSIISRYGIHGFPTLFLLNSTMRVRYHGPRTVKSLAAFYRDVSG",binds
5,"OsORF020300-2233.2 aa 93-387 (other, prey, AD fusion; also called PN21639; Hypothetical Protein ORF020300-2233.2, Putative PP2A Regulatory Subunit, Similar to OsCAA90866) LLVPYYLGEMTERVAQEDRIPVLKASQDHLKEFISICEALELISEDELELSRQKQPDTMANRRAQKAARFKRQKAAETKLLEIKERKERRRRSLRAAALSAPIEAGEEDAFEDDGEEEREAWLATISLALCKAFDLLDMLKKEEEMLLAVKERQAKDGNAFAREMLDERTKKAEAWHHNAANRAPYSKPADPITCATFAQDVIEGRASVSQAHEHKHQPLIFGPASLVGGGLTSERERMAAQVFQPSYRLPTMSIEEAGLREMKMMEKWQERTAKMIQESNSAWHKDGSRSAQED",binds
